# Reference: article doi:10.1101/270843
# Read-outs that look alike come from different tables or passages of the source.
# B1: Scrambled DNA 90-mer (ssDNA)
# DNA: ACTAGCTCAAGCGGGGGACACCCAGGTGTCTCCAACAGTCCGTAGATCGGACGGAGAAGAGGGGACCCCGCTAATGAGCGTGAGCAGAGA
# B2: HIV-1 LTR 90-mer (ssDNA)
# DNA: AGCAGTGGCGCCCGAACAGGGACTTGAAAGCGAAAGTAAAGCCAGAGGAGATCTCTCGACGCAGGACTCGGCTTGCTGAAGCGCGCACGG
# Legend:
# Assay in all cases: fluorescence anisotropy
# [1] = molecular target: T1, SAMHD1 T592A (UniProt Q9Y3Z3 1-626, T592A)
# [2] = molecular target: T2, SAMHD1 WT (UniProt Q9Y3Z3 1-626)
# [3] = molecular target: T1, SAMHD1 T592A; remark: listed apart in the source
# [4] = molecular target: T2, SAMHD1 WT; remark: listed apart in the source
# [5] = molecular target: T2, SAMHD1 WT; remark: listed apart in the source
# T2 sequence (Q9Y3Z3 whole entry): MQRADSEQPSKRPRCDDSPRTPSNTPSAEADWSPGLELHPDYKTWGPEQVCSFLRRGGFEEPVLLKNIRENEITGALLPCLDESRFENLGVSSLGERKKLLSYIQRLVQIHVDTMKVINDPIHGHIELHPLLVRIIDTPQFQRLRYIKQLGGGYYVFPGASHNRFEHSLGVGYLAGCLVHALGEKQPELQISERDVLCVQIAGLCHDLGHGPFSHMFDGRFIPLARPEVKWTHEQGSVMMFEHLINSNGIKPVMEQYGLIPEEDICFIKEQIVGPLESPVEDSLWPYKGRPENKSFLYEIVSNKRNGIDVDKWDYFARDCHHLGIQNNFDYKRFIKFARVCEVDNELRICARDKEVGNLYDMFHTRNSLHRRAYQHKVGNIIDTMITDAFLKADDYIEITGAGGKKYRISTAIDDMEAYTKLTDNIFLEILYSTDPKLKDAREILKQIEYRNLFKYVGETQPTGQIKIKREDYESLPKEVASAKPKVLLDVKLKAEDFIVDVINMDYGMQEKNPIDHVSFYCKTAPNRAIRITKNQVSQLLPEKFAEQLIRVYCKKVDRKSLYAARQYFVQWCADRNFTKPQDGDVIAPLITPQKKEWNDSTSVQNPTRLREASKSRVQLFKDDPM
# T1 sequence (Q9Y3Z3 whole entry T592A): as the sequence (Q9Y3Z3 whole entry) above, with T592A counted along it
binder,measurement,setting,value
B1,binding result,[1],no binding
same,binding result,[2],no binding
B2,binding result,[3],no binding
same,Kd,[4],93 ± 8 nM
same,Kd,[5],242 ± 51 nM
